Consider three molecules from article PMC5066616, “Rapid dynamics of general transcription factor TFIIB binding during preinitiation complex assembly revealed by single-molecule analysis”.

The target of series [1] is TFIID–TFIIA complex on promoter DNA (TFIID–TFIIA–promoter complex) (human) (UniProt P20226). As to the kind of experiment: single-molecule fluorescence colocalisation (TIRF); supercore promoter DNA and a mutant control template (-63 to +90) immobilised via biotin–streptavidin; dye-labelled factors injected with unlabelled ones; a signal within ∼40 nm of a DNA position counted as binding; 2.5 Hz; 11.3 mM HEPES pH 7.9, 5.6 mM MgCl2, 45 mM KCl; the target protein is DNA-bound.

Series [2] deals with T1, TBP;TFIIA;TFIIB full length (human;human;human, UniProt P20226;P52655;P52657;Q00403 1-339;1-376;1-109;1-316, ||). In words: EMSA; 10 nM DNA; similar efficiency to supercore; Single-molecule: 11.3 mM HEPES pH 7.9, 5.6 mM MgCl2, 45 mM KCl, 45 uM EDTA, 4.5% glycerol, 3.6 ng/ul tRNA, 0.1 ng/ul poly(dG:dC), 0.09% Tween 20, 0.0045% NP40. To be noted: protein: recombinant;recombinant;recombinant; tags: N-terminal 6xHis-HaloTag; TMR; GST removed by Ulp1;N-terminal tag incl. thrombin site, Ni-NTA purified; Alexa647 or TMR; copies: 1;1;1;1; label: 5' Cy3 or Atto633; 5' biotin; blunt.

Series [3] concerns the target T1, TBP;TFIIA;TFIIB full length. In words: EMSA; 10 nM DNA; Single-molecule: 11.3 mM HEPES pH 7.9, 5.6 mM MgCl2, 45 mM KCl, 45 uM EDTA, 4.5% glycerol, 3.6 ng/ul tRNA, 0.1 ng/ul poly(dG:dC), 0.09% Tween 20, 0.0045% NP40. Conditions: protein: recombinant;recombinant;recombinant; tags: N-terminal 6xHis-HaloTag; TMR; GST removed by Ulp1;N-terminal tag incl. thrombin site, Ni-NTA purified; Alexa647 or TMR; copies: 1;1;1;1; label: 5' Cy3 or Atto633; 5' biotin; blunt. In general terms: Mobility shift assays separate free from complexed probe on a gel.

TFIID–TFIIA complex on promoter DNA (TFIID–TFIIA–promoter complex) (human), sequence (P20226 whole entry, looked up, one chain of several): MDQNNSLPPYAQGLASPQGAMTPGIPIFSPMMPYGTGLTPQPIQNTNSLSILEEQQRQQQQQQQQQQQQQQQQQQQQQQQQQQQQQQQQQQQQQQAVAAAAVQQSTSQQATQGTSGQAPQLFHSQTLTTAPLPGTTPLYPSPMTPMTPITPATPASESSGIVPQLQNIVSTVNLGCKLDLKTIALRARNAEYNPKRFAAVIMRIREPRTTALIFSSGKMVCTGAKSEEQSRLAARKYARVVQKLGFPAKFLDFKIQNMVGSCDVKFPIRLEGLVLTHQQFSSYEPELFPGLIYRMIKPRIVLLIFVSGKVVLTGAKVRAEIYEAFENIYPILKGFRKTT
T1 sequence (P20226 whole entry, chain 1 of 4): as the sequence (P20226 whole entry, looked up, one chain of several) above
T1 sequence (P52655 whole entry, chain 2 of 4): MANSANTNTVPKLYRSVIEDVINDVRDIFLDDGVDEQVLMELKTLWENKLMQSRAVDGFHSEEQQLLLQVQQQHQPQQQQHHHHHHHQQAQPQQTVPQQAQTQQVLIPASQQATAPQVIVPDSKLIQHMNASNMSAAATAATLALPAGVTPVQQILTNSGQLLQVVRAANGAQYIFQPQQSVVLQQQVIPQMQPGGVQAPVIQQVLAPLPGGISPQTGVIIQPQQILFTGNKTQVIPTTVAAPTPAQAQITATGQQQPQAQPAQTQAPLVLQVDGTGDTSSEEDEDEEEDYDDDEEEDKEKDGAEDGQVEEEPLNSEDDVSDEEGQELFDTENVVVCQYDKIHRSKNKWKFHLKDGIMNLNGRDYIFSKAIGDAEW
T1 sequence (P52657 whole entry, chain 3 of 4): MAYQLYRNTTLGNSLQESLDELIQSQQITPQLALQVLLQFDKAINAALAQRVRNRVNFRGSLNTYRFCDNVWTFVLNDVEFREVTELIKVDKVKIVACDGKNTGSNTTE
T1 sequence (Q00403 whole entry, chain 4 of 4): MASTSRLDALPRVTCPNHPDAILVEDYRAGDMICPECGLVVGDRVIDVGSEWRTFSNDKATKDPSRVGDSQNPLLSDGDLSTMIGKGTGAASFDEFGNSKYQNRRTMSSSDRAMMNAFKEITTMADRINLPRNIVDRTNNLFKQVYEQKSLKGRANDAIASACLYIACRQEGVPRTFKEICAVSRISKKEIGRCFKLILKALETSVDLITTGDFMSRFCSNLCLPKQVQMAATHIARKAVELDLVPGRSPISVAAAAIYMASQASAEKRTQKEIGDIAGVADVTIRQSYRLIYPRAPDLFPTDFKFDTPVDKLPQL

In series [1], “TFIIB, full-length (FL) (from UniProt Q00403 1-316) (natural protein)” gave a DNA-binding efficiency (percent of supercore templates colocalising with TFIIB) of 30%, an average residence time of 1.5 s and an average waiting time after TFIIA arrival (∼8 nM TFIIB) of 3 s.

B1: Mutant control template, EMSA (dsDNA)
DNA 1: CATAACCATATGTATCATACACATACGGTACACGTATGTGGGGGTGGGGGCGCGTTCGTCCTGTGACACGATCGAACACTCGAGCCGAGCAGCATAGCCTACGGACCGCAAGCTTCCCTATCCCTTATCTTAACCACTCCAATTACATACACC
DNA 2: GGTGTATGTAATTGGAGTGGTTAAGATAAGGGATAGGGAAGCTTGCGGTCCGTAGGCTATGCTGCTCGGCTCGAGTGTTCGATCGTGTCACAGGACGAACGCGCCCCCACCCCCACATACGTGTACCGTATGTGTATGATACATATGGTTATG
For B1, the binding result in series [2] was “binds”.

B2: Supercore promoter template, EMSA (dsDNA)
DNA 1: CATAACCATATGTATCATACACATACGGTACTTATATAAGGGGGTGGGGGCGCGTTCGTCCTCAGTCGCGATCGAACACTCGAGCCGAGCAGACGTGCCTACGGACCGCAAGCTTCCCTATCCCTTATCTTAACCACTCCAATTACATACACC
DNA 2: GGTGTATGTAATTGGAGTGGTTAAGATAAGGGATAGGGAAGCTTGCGGTCCGTAGGCACGTCTGCTCGGCTCGAGTGTTCGATCGCGACTGAGGACGAACGCGCCCCCACCCCCTTATATAAGTACCGTATGTGTATGATACATATGGTTATG
Regarding B2, in series [3], the binding result was “binds”.
